Consider two molecules from patent US20210340205A1 (Novartis, published 2021).

For this test, the target named is T1, Human cRET(ECD)-Fc (human).
T1 construct: also called RET-Fc
Description: MSD plate assay, cRET(ECD)-Fc coated; biotinylated anti-6xHis mAb and streptavidin sulfo-tag. The protocol:
Methods: To generate soluble GDF15/GFRAL complexes in vitro, recombinant GFRAL(D2D3)-App, GFRAL(ECD)-His, and GFRAL(ECD)-Fc proteins purified in Example 1 were freshly mixed with equimolar amounts of biotinylated His-GDF15 (1250 pM) in DPBS supplemented with 50 μM CaCl₂. The mixtures were incubated at room temperature for 60 min to allow complex formation. The complex made was stable at 4° C. and was used directly for in vitro binding assays against cRET(ECD)-Fc coated on plastic plates without further purification. Three different GDF15/GFRAL ECD complexes were prepared, including His-GDF15(biotin)/GFRAL(D2D3)-App, His-GDF15(biotin)/GFRAL (ECD)-His, and His-GDF15(biotin)/GFRAL (ECD)-Fc in the same manner. […] His-GDF15(L294R) was mixed with GFRAL(ECD)-His to generate a negative control for GDF15/GFRAL/cRET interaction. […]
Methods: Mixtures of purified biotinylated His-GDF15 and GFRAL(ECD)-His or His-GDF15(L294R) and GFRAL(ECD)-His were prepared as described in Example 3. […] Binding of proteins to plates coated with cRET(ECD)-Fc was detected using biotinylated mouse anti-6×His tag monoclonal antibody followed by streptavidin sulfo-tag, and otherwise by methods described in Example 3.

T1 sequence (chain, as listed by the source): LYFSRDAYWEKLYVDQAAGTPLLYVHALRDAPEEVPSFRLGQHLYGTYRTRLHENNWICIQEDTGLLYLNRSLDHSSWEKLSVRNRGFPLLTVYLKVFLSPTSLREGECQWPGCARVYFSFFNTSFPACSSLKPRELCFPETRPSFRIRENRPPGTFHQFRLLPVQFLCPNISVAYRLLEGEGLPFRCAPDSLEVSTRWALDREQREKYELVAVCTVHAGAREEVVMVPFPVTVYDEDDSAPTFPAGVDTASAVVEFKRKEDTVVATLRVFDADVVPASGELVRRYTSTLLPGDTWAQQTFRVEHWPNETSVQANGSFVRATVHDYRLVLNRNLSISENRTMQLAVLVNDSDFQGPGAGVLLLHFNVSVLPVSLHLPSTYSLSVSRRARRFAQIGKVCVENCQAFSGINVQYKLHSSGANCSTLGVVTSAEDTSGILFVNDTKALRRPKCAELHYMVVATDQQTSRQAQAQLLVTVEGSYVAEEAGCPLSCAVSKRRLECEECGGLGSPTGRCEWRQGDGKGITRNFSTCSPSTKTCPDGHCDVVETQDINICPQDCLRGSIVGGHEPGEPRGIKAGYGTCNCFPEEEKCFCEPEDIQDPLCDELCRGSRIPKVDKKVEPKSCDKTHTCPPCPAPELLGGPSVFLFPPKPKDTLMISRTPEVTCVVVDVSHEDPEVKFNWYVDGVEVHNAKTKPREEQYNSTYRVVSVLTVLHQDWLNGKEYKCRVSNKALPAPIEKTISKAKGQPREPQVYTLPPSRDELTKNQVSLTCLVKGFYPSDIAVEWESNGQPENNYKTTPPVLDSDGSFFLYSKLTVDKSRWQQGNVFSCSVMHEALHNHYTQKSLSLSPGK

B1: His-GDF15(L294R)/GFRAL(ECD)-His mixture (other)
chain 1: HHHHHHGSGGARNGDHCPLGPGRCCRLHTVRASLEDLGWADWVLSPREVQVTMCIGACPSQFRAANMHAQIKTSLHRLKPDTVPAPCCVPASYNPMVLIQKTDTGVSRQTYDDLLAKDCHCI
chain 2: QTNNCTYLREQCLRDANGCKHAWRVMEDACNDSDPGDPCKMRNSSYCNLSIQYLVESNFQFKECLCTDDFYCTVNKLLGKKCINKSDNVKEDKFKWNLTTRSHHGFKGMWSCLEVAEACVGDVVCNAQLASYLKACSANGNPCDLKQCQAAIRFFYQNIPFNIAQMLAFCDCAQSDIPCQQSKEALHSKTCAVNMVPPPTCLSVIRSCQNDELCRRHYRTFQSKCWQRVTRKCHEDENCISTLSKQDLTCSGSDDCKAAYIDILGTVLQVQCTCRTITQSEESLCKIFQHMLHRKSCFNYPTLSNVKGMALYTRKHANKITLTGFHSPFNGEGSHHHHHH
B1: the binding result is reported as “no binding (tested: 0-5 log 10 pM)”.

B2: His-GDF15(L294R) (ligand)
chain: B1 chain 1
notes: Non-functional mutant, prepared in the same way as wild-type His-GDF15 (E. coli, see US 2017/204149); also called His-GDF15(L294R) mutant
For B2, the binding result was “no binding (tested: 0-5 log 10 pM)”.
